Laboratory results: the Human Domainome abundance scans (Beltran et al. 2025)
± gives the uncertainty stated by the source.

B1: Ventral anterior homeobox 1, residues 102 to 157; numbered along this chain, Q5SQQ9 (parent)
chain: RTRTSFTAEQLYRLEMEFQRCQYVVGRERTELARQLNLSETQVKVWFQNRRTKQKK
B2: Intersectin-1, residues 909 to 971; numbered along this chain, Q15811 (parent)
chain: QGEKVEGLQAQALYPWRAKKDNHLNFNKNDVITVLEQQDMWWFGEVQGQKGWFPKSYVKLISG

Variants of: B1
Assay: abundance fitness (aPCA) (normalised: wild type 0, dead -1); higher = more abundant; growth selection in yeast, the domain comes from the species named
Conditions: Homo sapiens

Variant | abundance fitness
L38S | -0.321 ± 0.14
L38D | -0.818 ± 0.24
L38G | -0.822 ± 0.11
K55F | -0.229 ± 0.21
K55P | 0.061 ± 0.13
K55S | -0.072 ± 0.12
K55E | 0.238 ± 0.15
K55C | -0.091 ± 0.2
K55I | -0.238 ± 0.2
K55H | -0.149 ± 0.26
K55V | 0.119 ± 0.1
T41Q | 0.227 ± 0.19
T41C | 0.164 ± 0.17
T41S | 0.006 ± 0.12
T41N | -0.127 ± 0.35
T41W | -0.12 ± 0.12
L14V | -0.619 ± 0.19
L14F | -0.789 ± 0.38
L14S | -0.906 ± 0.2
Y12C | -0.176 ± 0.2
Y12F | -0.13 ± 0.21
Y12T | 0.018 ± 0.14
Y12I | -0.188 ± 0.3

Variant | abundance fitness
Y12S | 0.069 ± 0.11
Y12L | -0.086 ± 0.12
G26E | -0.249 ± 0.24
G26Q | -0.23 ± 0.19
R27C | -0.026 ± 0.2
R27S | 0.18 ± 0.15
R27H | -0.245 ± 0.26
R27G | 0.003 ± 0.097
R27V | -0.01 ± 0.12
R27N | 0.156 ± 0.29
R27K | -0.045 ± 0.2
R51F | -0.2 ± 0.25
R51A | -0.325 ± 0.12
R51Y | -0.091 ± 0.21
R51W | -0.243 ± 0.14
R51K | -0.365 ± 0.32
R51E | -0.309 ± 0.19
R51I | 0.068 ± 0.26
R51D | -0.14 ± 0.22
S39K | -0.25 ± 0.2
S39Q | -0.313 ± 0.15
S39M | -0.595 ± 0.2
S39E | -0.115 ± 0.18

Variant | abundance fitness
S39I | -1.08 ± 0.44
S39R | -0.417 ± 0.11
R50Y | -0.285 ± 0.27
R50W | -0.929 ± 0.2
R50T | -0.392 ± 0.16
R50V | -0.943 ± 0.18
R50L | -0.925 ± 0.2
R50K | -0.041 ± 0.17
R50I | -1.09 ± 0.44
Q19W | -0.213 ± 0.15
Q19H | -0.274 ± 0.24
Q19T | -0.046 ± 0.14
Q19L | -0.044 ± 0.12
Q19E | -0.039 ± 0.14
Q19N | -0.115 ± 0.22
Q19D | -0.161 ± 0.19
M16K | -0.301 ± 0.21
M16W | -0.291 ± 0.16
M16G | -0.109 ± 0.11
M16V | -0.09 ± 0.12
M16A | -0.043 ± 0.14
M16D | 0.075 ± 0.23
R34Q | -0.361 ± 0.3

Variant | abundance fitness
R34D | -0.203 ± 0.36
R34Y | -0.655 ± 0.41
R34M | -0.256 ± 0.26
R34E | -0.235 ± 0.24
T2D | -0.034 ± 0.19
T2N | 0.271 ± 0.35
T2M | -0.128 ± 0.26
Q42C | -0.563 ± 0.49
Q42E | 0.183 ± 0.16
Q42L | -0.137 ± 0.15
Q42K | -0.473 ± 0.3
Q42D | 0.028 ± 0.33
Q42N | -0.257 ± 0.31
Q42A | 0.021 ± 0.12
Q42S | -0.364 ± 0.22
Q42G | -0.603 ± 0.13
A33Y | -0.692 ± 0.25
F47I | -0.663 ± 0.29
F47H | -0.754 ± 0.35
F47G | -0.976 ± 0.14
F47W | -0.651 ± 0.25
F47T | -0.792 ± 0.24
F47V | -0.787 ± 0.17

Variant | abundance fitness
F47Y | -0.376 ± 0.34
S5G | -0.002 ± 0.092
S5H | -0.224 ± 0.28
S5E | 0.326 ± 0.14
S5W | -0.189 ± 0.14
S5Y | -0.013 ± 0.22
N49E | 0.297 ± 0.15
N49C | -0.283 ± 0.25
N49M | -0.442 ± 0.2
N49I | -0.069 ± 0.27
N49H | -0.358 ± 0.27
N49T | 0.072 ± 0.18
R1M | 0.083 ± 0.39
R13P | -0.849 ± 0.15
R13F | -0.29 ± 0.18
R13Q | 0.163 ± 0.18
R13A | 0.089 ± 0.12
R13S | -0.074 ± 0.097
R13K | -0.004 ± 0.29
R13N | -0.283 ± 0.2
R13V | -0.311 ± 0.15
A8H | -0.817 ± 0.39
A8V | -0.154 ± 0.11

Variant | abundance fitness
A8W | -0.348 ± 0.16
Q48I | -0.284 ± 0.46
Q48S | -0.111 ± 0.16
Q48Y | -0.298 ± 0.28
V24W | -0.416 ± 0.24
V24T | -0.074 ± 0.19
V24M | -0.16 ± 0.18
V24P | -0.167 ± 0.21
V24G | -0.436 ± 0.14
V24F | -0.408 ± 0.32
V24N | -0.25 ± 0.32
V24A | -0.12 ± 0.14
V45H | -0.021 ± 0.21
V45N | -0.248 ± 0.27
V45T | 0.126 ± 0.16
V45W | 0.015 ± 0.1
V45Q | -0.061 ± 0.18
V45S | 0.158 ± 0.12

Variants of: B2
Assay: as above
Conditions: Homo sapiens

Variant | abundance fitness
MGEKVEGLQAQALYPWRAKKDNHLNFNKNDVITVLEQQDMWWFGEVQGQKGWFPKSYVKLISG [Q1M] | -0.208 ± 0.31
KGEKVEGLQAQALYPWRAKKDNHLNFNKNDVITVLEQQDMWWFGEVQGQKGWFPKSYVKLISG [Q1K] | -0.496 ± 0.11
VGEKVEGLQAQALYPWRAKKDNHLNFNKNDVITVLEQQDMWWFGEVQGQKGWFPKSYVKLISG [Q1V] | 0.158 ± 0.4
RGEKVEGLQAQALYPWRAKKDNHLNFNKNDVITVLEQQDMWWFGEVQGQKGWFPKSYVKLISG [Q1R] | -0.299 ± 0.13
SGEKVEGLQAQALYPWRAKKDNHLNFNKNDVITVLEQQDMWWFGEVQGQKGWFPKSYVKLISG [Q1S] | -0.334 ± 0.36
CGEKVEGLQAQALYPWRAKKDNHLNFNKNDVITVLEQQDMWWFGEVQGQKGWFPKSYVKLISG [Q1C] | -0.06 ± 0.19
WGEKVEGLQAQALYPWRAKKDNHLNFNKNDVITVLEQQDMWWFGEVQGQKGWFPKSYVKLISG [Q1W] | -0.34 ± 0.16
GGEKVEGLQAQALYPWRAKKDNHLNFNKNDVITVLEQQDMWWFGEVQGQKGWFPKSYVKLISG [Q1G] | -0.083 ± 0.12
TGEKVEGLQAQALYPWRAKKDNHLNFNKNDVITVLEQQDMWWFGEVQGQKGWFPKSYVKLISG [Q1T] | -0.111 ± 0.28
EGEKVEGLQAQALYPWRAKKDNHLNFNKNDVITVLEQQDMWWFGEVQGQKGWFPKSYVKLISG [Q1E] | -0.335 ± 0.31
LGEKVEGLQAQALYPWRAKKDNHLNFNKNDVITVLEQQDMWWFGEVQGQKGWFPKSYVKLISG [Q1L] | -0.164 ± 0.17
QAEKVEGLQAQALYPWRAKKDNHLNFNKNDVITVLEQQDMWWFGEVQGQKGWFPKSYVKLISG [G2A] | -0.028 ± 0.12
QDEKVEGLQAQALYPWRAKKDNHLNFNKNDVITVLEQQDMWWFGEVQGQKGWFPKSYVKLISG [G2D] | -0.265 ± 0.086
QCEKVEGLQAQALYPWRAKKDNHLNFNKNDVITVLEQQDMWWFGEVQGQKGWFPKSYVKLISG [G2C] | -0.286 ± 0.16
